# Patent publication US20200299408A1 (Genentech, published 2020)
# Where “and” joins values, the source holds several entries; their conditions need not be identical. Identical values can stand only once. Like-named read-outs stand apart in the source and are kept apart here.
# T1: single chain human CD3ε-26mer-CD3γ (CD3εγ) (human)
# T1 construct: also called human CD3εγ
# T1 chain: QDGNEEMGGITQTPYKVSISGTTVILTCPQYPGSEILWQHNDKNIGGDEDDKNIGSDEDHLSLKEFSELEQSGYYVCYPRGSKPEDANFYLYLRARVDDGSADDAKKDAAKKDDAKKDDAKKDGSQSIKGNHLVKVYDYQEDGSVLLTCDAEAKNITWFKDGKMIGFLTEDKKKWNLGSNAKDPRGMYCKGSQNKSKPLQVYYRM
# Columns and labels:
# [1] = target: CD3 antigen of Figures 3B and 3C (not named); assay: kinetic table of IgGs; method and antigen not stated
# [2] = target: CD3 antigen of Figures 3B and 3C (not named); assay: as above; remark: listed apart in the source
# [3] = target: T2, human CD3 on T cells (human, UniProt P07766 22-207); assay: FACS on Jurkat cells (CD3); EC50 table for the curves of FIGS. 21A-21B; source CHO (N297G)
# T2 construct: whole, on cells; On cells CD3ε stands in the CD3/TCR complex; also called CD3 antigen; CD3ε
# Description: (§1) Binding affinities for the each of the CD3/CD20 TDBs were tested by Biacore or FACS analysis, as described above for the anti-CD3 antibodies. Briefly, for Biacore binding assays, human CD3εγ was immobilized on Biacore Series S CM5 sensor chip using the amine coupling kit from Biacore and CD3/CD20 TDBs or Fab variants thereof were in the flow through. For FACS binding assays, either Bjab cells (for B cell antigens) or Jurkat cells (for CD3 antigen) were incubated with various concentrations of TDB antibodies at 4° C. for 30 minutes, then cells were washed and incubated with 2nd antibody (anti-huIgG-PE; BD Bioscience) for another 15 minutes, before cells were washed again and ready for FACS analysis.
# [4] = target: T1, single chain human CD3ε-26mer-CD3γ …; assay: Biacore, human CD3εγ on chip, TDB in flow through
# Description: as §1
Binder,Kd [1] [nM],koff [1] [s⁻¹],kon [1] [M⁻¹ s⁻¹],Kd [2] [nM],koff [2] [s⁻¹],kon [2] [M⁻¹ s⁻¹],EC50 [3],Kd [4],koff [4] [s⁻¹],kon [4] [M⁻¹ s⁻¹]
"38E4 (antibody, IgG3, V domains shown, mouse hybridoma clone; also called mu38E4) VH: QVQLQQSGPELVKPGASVTISCTASGFTFTSYYIHWVRQRPGQGLEWIGWIYPENDNTKYNEKFKDKATLTADTSSSTAYMQLSSLTSEDSAVYYCARDGYSRYYFDYWGQGTTLTVSS VL: DIVMTQSPSFLAVSAGEKVTMSCKSSQSLLNSRTRKNYLAWYQQRPGQSPKLLIYWTSTRKSGVPDRFTGSGSGTDFTLTISSVQAEDLAIYYCKQSFILRTFGGGTKLEIK",0.95,5.32e-05,56000,0.0783,3.45e-05,441000,–,–,–,–
"38E4v4 CHO (bispecific antibody, also called CD3/CD20 TDB 2H7v16/38E4v4) anti-CD20 arm heavy chain: EVQLVESGGGLVQPGGSLRLSCAASGYTFTSYNMHWVRQAPGKGLEWVGAIYPGNGDTSYNQKFKGRFTISVDKSKNTLYLQMNSLRAEDTAVYYCARVVYYSNSYWYFDVWGQGTLVTVSS anti-CD20 arm light chain: DIQMTQSPSSLSASVGDRVTITCRASSSVSYMHWYQQKPGKAPKPLIYAPSNLASGVPSRFSGSGSGTDFTLTISSLQPEDFATYYCQQWSFNPPTFGQGTKVEIK anti-CD3 arm heavy chain: EVQLVQSGAEVKKPGASVKVSCKASGFTFTSYYIHWVRQAPGQGLEWIGWIYPENDNTKYNEKFKDRVTITADTSTSTAYLELSSLRSEDTAVYYCARDGYSRYYFDYWGQGTLVTVSS anti-CD3 arm light chain: DIVMTQSPDSLAVSLGERATINCKSSQSLLNSRTRKNYLAWYQQKPGQSPKLLIYWTSTRKSGVPDRFSGSGSGTDFTLTISSLQAEDVAVYYCKASFILRTFGQGTKVEIK",–,–,–,–,–,–,3.51 µg/mL and ~23 nM,137 nM and 136 nM,0.0984,721000
"38E4v7 CHO (bispecific antibody, also called CD3/CD20 TDB 2H7v16/38E4v7) anti-CD20 arm heavy chain: EVQLVESGGGLVQPGGSLRLSCAASGYTFTSYNMHWVRQAPGKGLEWVGAIYPGNGDTSYNQKFKGRFTISVDKSKNTLYLQMNSLRAEDTAVYYCARVVYYSNSYWYFDVWGQGTLVTVSS anti-CD20 arm light chain: DIQMTQSPSSLSASVGDRVTITCRASSSVSYMHWYQQKPGKAPKPLIYAPSNLASGVPSRFSGSGSGTDFTLTISSLQPEDFATYYCQQWSFNPPTFGQGTKVEIK anti-CD3 arm heavy chain: EVQLVQSGAEVKKPGASVKVSCKASGFTFTSYYIHWVRQAPGQGLEWIGWIYPENDNTKYNEKFKDRVTITADTSTSTAYLELSSLRSEDTAVYYCARDGYSRYAFDYWGQGTLVTVSS anti-CD3 arm light chain: DIVMTQSPDSLAVSLGERATINCKSSQSLLNSRTRKNYLAWYQQKPGQSPKLLIYWTSTRKSGVPDRFSGSGSGTDFTLTISSLQAEDVAVYYCKQSFILRTFGQGTKVEIK",–,–,–,–,–,–,22.6 µg/mL and ~147 nM,254 nM,0.29,1.14e+06
"38E4v5 CHO (bispecific antibody, also called CD3/CD20 TDB 2H7v16/38E4v5) anti-CD20 arm heavy chain: EVQLVESGGGLVQPGGSLRLSCAASGYTFTSYNMHWVRQAPGKGLEWVGAIYPGNGDTSYNQKFKGRFTISVDKSKNTLYLQMNSLRAEDTAVYYCARVVYYSNSYWYFDVWGQGTLVTVSS anti-CD20 arm light chain: DIQMTQSPSSLSASVGDRVTITCRASSSVSYMHWYQQKPGKAPKPLIYAPSNLASGVPSRFSGSGSGTDFTLTISSLQPEDFATYYCQQWSFNPPTFGQGTKVEIK anti-CD3 arm heavy chain: EVQLVQSGAEVKKPGASVKVSCKASGFTFTSYYIHWVRQAPGQGLEWIGWIYPENDNTKYNEKFKDRVTITADTSTSTAYLELSSLRSEDTAVYYCARDGYSRYYFDYWGQGTLVTVSS anti-CD3 arm light chain: DIVMTQSPDSLAVSLGERATINCKSSQSLLNSRTRKNYLAWYQQKPGQSPKLLIYWTSTRKSGVPDRFSGSGSGTDFTLTISSLQAEDVAVYYCKQSAILRTFGQGTKVEIK",–,–,–,–,–,–,4.11 µg/mL and ~27 nM,16 nM,0.0515,3.22e+06
"38E4v6 CHO (bispecific antibody, also called CD3/CD20 TDB 2H7v16/38E4v6) anti-CD20 arm heavy chain: EVQLVESGGGLVQPGGSLRLSCAASGYTFTSYNMHWVRQAPGKGLEWVGAIYPGNGDTSYNQKFKGRFTISVDKSKNTLYLQMNSLRAEDTAVYYCARVVYYSNSYWYFDVWGQGTLVTVSS anti-CD20 arm light chain: DIQMTQSPSSLSASVGDRVTITCRASSSVSYMHWYQQKPGKAPKPLIYAPSNLASGVPSRFSGSGSGTDFTLTISSLQPEDFATYYCQQWSFNPPTFGQGTKVEIK anti-CD3 arm heavy chain: EVQLVQSGAEVKKPGASVKVSCKASGFTFTSYYIHWVRQAPGQGLEWIGWIYPENDNTKYNEKFKDRVTITADTSTSTAYLELSSLRSEDTAVYYCARTGYSRYYFDYWGQGTLVTVSS anti-CD3 arm light chain: DIVMTQSPDSLAVSLGERATINCKSSQSLLNSRTRKNYLAWYQQKPGQSPKLLIYWTSTRKSGVPDRFSGSGSGTDFTLTISSLQAEDVAVYYCKQSFILRTFGQGTKVEIK",–,–,–,–,–,–,5.56 µg/mL and ~36 nM,37600 nM,0.878,23400

# The next lines start with the values.
Kd [1] [nM],koff [1] [s⁻¹],kon [1] [M⁻¹ s⁻¹],Kd [2] [nM],koff [2] [s⁻¹],kon [2] [M⁻¹ s⁻¹],EC50 [3],Kd [4],koff [4] [s⁻¹],kon [4] [M⁻¹ s⁻¹],Binder
8.46,0.000242,28600,–,–,–,–,–,–,–,"Rab17 (antibody, rabbit IgG1, V domains shown, clone from the rabbit immunization) VH: QSVKESEGGLFKPTDTLTLTCTVSGCSLSSCAISWVRQAPGKGLEWIGFMSVTGSAYYANWAKSRSTITRNTNENTVTLKMTRLTAADTAIYFCARVGIGSGLNIWG VL: DMTQTPSSKSVPVGDTVTINCQASETVYSNNYLAWFQQKPGQPPKRLIYGVSTLDSGVPPRFSGSGSGTQFTLTISDVVCDDAATYYCAGYKTSSSYAIAFGGGTELEIL"
0.86,2.69e-05,31100,0.159,2.48e-05,156000,–,–,–,–,"40G5 (antibody, V domains shown, mouse hybridoma clone; not the consensus 40G5c; also called mu40G5) VH: QVQLQQSGPELVKPGTSVKMSCKASGYTFTNYYIHWVRQRPGQGLEWIGWIYPGDVSTKYNEKFKGKTTLTADKSSSTAYMLLSGLTSEDSAIYFCARDGYSFYYFDYWGQGTTLTVSS VL: DIVLTQSPSSLAVSAGEKVTMSCKSSQSLLNSRTRKNYLTWYQQKPGQSPKLLIYWASTRDSGVPDRFSGSGSGTDFTLTISSVQAEDLAVYYCTQSYTLRTFGGGTKLEIK"
–,–,–,–,–,–,2.01 µg/mL and ~13 nM,51.5 nM,0.0307,597000,"40G5c CHO (bispecific antibody, V domains shown, CHO-produced full-length knob-into-hole IgG with N297G in the Fc; constant regions are not in the letters., CHO material; also called CD3/CD20 TDB 2H7v16/40G5c produced in CHO, N297G) VH 1: EVQLVESGGGLVQPGGSLRLSCAASGYTFTSYNMHWVRQAPGKGLEWVGAIYPGNGDTSYNQKFKGRFTISVDKSKNTLYLQMNSLRAEDTAVYYCARVVYYSNSYWYFDVWGQGTLVTVSS VL 1: DIQMTQSPSSLSASVGDRVTITCRASSSVSYMHWYQQKPGKAPKPLIYAPSNLASGVPSRFSGSGSGTDFTLTISSLQPEDFATYYCQQWSFNPPTFGQGTKVEIK VH 2: EVQLVQSGAEVKKPGASVKVSCKASGYTFTNYYIHWVRQAPGQGLEWIGWIYPGDGNTKYNEKFKGRATLTADTSTSTAYLELSSLRSEDTAVYYCARDSYSNYYFDYWGQGTLVTVSS VL 2: DIVMTQSPDSLAVSLGERATINCKSSQSLLNSRTRKNYLAWYQQKPGQPPKLLIYWASTRESGVPDRFSGSGSGTDFTLTISSLQAEDVAVYYCTQSFILRTFGQGTKVEIK"
–,–,–,–,–,–,7.23 µg/mL and ~47 nM,3930 nM,0.0443,11300,"38E4v8 CHO (bispecific antibody, also called CD3/CD20 TDB 2H7v16/38E4v8) anti-CD20 arm heavy chain: EVQLVESGGGLVQPGGSLRLSCAASGYTFTSYNMHWVRQAPGKGLEWVGAIYPGNGDTSYNQKFKGRFTISVDKSKNTLYLQMNSLRAEDTAVYYCARVVYYSNSYWYFDVWGQGTLVTVSS anti-CD20 arm light chain: DIQMTQSPSSLSASVGDRVTITCRASSSVSYMHWYQQKPGKAPKPLIYAPSNLASGVPSRFSGSGSGTDFTLTISSLQPEDFATYYCQQWSFNPPTFGQGTKVEIK anti-CD3 arm heavy chain: EVQLVQSGAEVKKPGASVKVSCKASGFTFTSYYIHWVRQAPGQGLEWIGWIYPENDNTKYNEKFKDRVTITADTSTSTAYLELSSLRSEDTAVYYCARSGYSRYYFDYWGQGTLVTVSS anti-CD3 arm light chain: DIVMTQSPDSLAVSLGERATINCKSSQSLLNSRTRKNYLAWYQQKPGQSPKLLIYWTSTRKSGVPDRFSGSGSGTDFTLTISSLQAEDVAVYYCKQSFILRTFGQGTKVEIK"
–,–,–,–,–,–,15 µg/mL and ~97 nM,64200 nM,1.02,15900,"38E4v9 CHO (bispecific antibody, also called CD3/CD20 TDB 2H7v16/38E4v9) anti-CD20 arm heavy chain: EVQLVESGGGLVQPGGSLRLSCAASGYTFTSYNMHWVRQAPGKGLEWVGAIYPGNGDTSYNQKFKGRFTISVDKSKNTLYLQMNSLRAEDTAVYYCARVVYYSNSYWYFDVWGQGTLVTVSS anti-CD20 arm light chain: DIQMTQSPSSLSASVGDRVTITCRASSSVSYMHWYQQKPGKAPKPLIYAPSNLASGVPSRFSGSGSGTDFTLTISSLQPEDFATYYCQQWSFNPPTFGQGTKVEIK anti-CD3 arm heavy chain: EVQLVQSGAEVKKPGASVKVSCKASGFTFTSYYIHWVRQAPGQGLEWIGWIYPENDNTKYNEKFKDRVTITADTSTSTAYLELSSLRSEDTAVYYCARDGYSRAYFDYWGQGTLVTVSS anti-CD3 arm light chain: DIVMTQSPDSLAVSLGERATINCKSSQSLLNSRTRKNYLAWYQQKPGQSPKLLIYWTSTRKSGVPDRFSGSGSGTDFTLTISSLQAEDVAVYYCKQSFILRTFGQGTKVEIK"
